Data as given in the supplement of paper PMC9112550, “Optimization of the antimicrobial peptide Bac7 by deep mutational scanning” (BMC Biology, 2022).

Tested on: Escherichia coli TOP10
Test: shrunken log2 fold change of peptide-encoding DNA abundance (4.5 h post-induction vs induction); higher = less antimicrobial activity (less host growth inhibition)
Settings: time post-induction: 4.5 h; library: site-saturation at positions 5, 18, 19, 20
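Also: peptides expressed intracellularly from a pBAD plasmid library in pooled LB shake-flask culture, induced with 0.3% L-arabinose, DNA abundance read by NGS, three biological replicates, DESeq2 with apeglm shrinkage.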

| Sequence | shrunken log2 fold change |
| --- | --- |
| RRIRMRPPRLPRPRPRPKVWPRP | 1.04 |
| RRIRDRPPRLPRPRPRPWLRPRP | 0.081 |
| RRIRWRPPRLPRPRPRPDDCPRP | -0.0829 |
| RRIRWRPPRLPRPRPRPPPEPRP | 0.822 |
| RRIRRRPPRLPRPRPRPTRRPRP | 0.853 |
| RRIRIRPPRLPRPRPRPQTPPRP | -0.0927 |
| RRIRFRPPRLPRPRPRPEDEPRP | 0.0432 |
| RRIRGRPPRLPRPRPRPYFVPRP | 0.0122 |
| RRIRERPPRLPRPRPRPASAPRP | 0.33 |
| RRIRERPPRLPRPRPRPQYVPRP | -0.215 |
| RRIRCRPPRLPRPRPRPTATPRP | 0.299 |
| RRIRLRPPRLPRPRPRPRHFPRP | -0.131 |
| RRIRNRPPRLPRPRPRPCAKPRP | -0.0333 |
| RRIRWRPPRLPRPRPRPAVSPRP | 0.127 |
| RRIRDRPPRLPRPRPRPQLCPRP | 0.365 |
| RRIRTRPPRLPRPRPRPPLMPRP | -0.0314 |
| RRIRKRPPRLPRPRPRPHYRPRP | 0.0224 |
| RRIRRRPPRLPRPRPRPFYWPRP | -0.34 |
| RRIRQRPPRLPRPRPRPHLGPRP | -0.00552 |
| RRIRPRPPRLPRPRPRPHGLPRP | 0.026 |
| RRIRFRPPRLPRPRPRPVYGPRP | -0.286 |
| RRIRTRPPRLPRPRPRPAVFPRP | 0.271 |
| RRIRFRPPRLPRPRPRPPQGPRP | 0.171 |
| RRIRDRPPRLPRPRPRPHIAPRP | 0.0931 |
| RRIRGRPPRLPRPRPRPVVYPRP | 0.268 |

| Sequence | shrunken log2 fold change |
| --- | --- |
| RRIRHRPPRLPRPRPRPHWYPRP | -0.347 |
| RRIRGRPPRLPRPRPRPEEAPRP | 2.32 |
| RRIRERPPRLPRPRPRPCVPPRP | 0.0169 |
| RRIRNRPPRLPRPRPRPKTIPRP | -0.14 |
| RRIRWRPPRLPRPRPRPHMIPRP | -0.219 |
| RRIRHRPPRLPRPRPRPHTPPRP | -0.147 |
| RRIRVRPPRLPRPRPRPDEGPRP | 0.0672 |
| RRIRIRPPRLPRPRPRPHPPPRP | -0.0108 |
| RRIRERPPRLPRPRPRPEVPPRP | -0.00233 |
| RRIRDRPPRLPRPRPRPQLWPRP | 0.92 |
| RRIRRRPPRLPRPRPRPEPTPRP | 0.543 |
| RRIRKRPPRLPRPRPRPNLSPRP | -0.0224 |
| RRIRQRPPRLPRPRPRPVQYPRP | -0.0137 |
| RRIRKRPPRLPRPRPRPADQPRP | -0.0199 |
| RRIRTRPPRLPRPRPRPQEIPRP | -0.187 |
| RRIRGRPPRLPRPRPRPCEVPRP | 0.0371 |
| RRIRMRPPRLPRPRPRPYCPPRP | -0.066 |
| RRIRNRPPRLPRPRPRPMHYPRP | -0.13 |
| RRIRGRPPRLPRPRPRPCAGPRP | 0.834 |
| RRIRYRPPRLPRPRPRPETSPRP | 0.014 |
| RRIRIRPPRLPRPRPRPNCWPRP | 0.0114 |
| RRIRCRPPRLPRPRPRPWLRPRP | -0.0383 |
| RRIRLRPPRLPRPRPRPFDQPRP | 0.0721 |
| RRIRERPPRLPRPRPRPQGKPRP | -0.345 |
| RRIRPRPPRLPRPRPRPGSMPRP | -0.149 |

| Sequence | shrunken log2 fold change |
| --- | --- |
| RRIRPRPPRLPRPRPRPTICPRP | 0.172 |
| RRIRKRPPRLPRPRPRPCIQPRP | 0.0636 |
| RRIRPRPPRLPRPRPRPKSNPRP | -0.37 |
| RRIRSRPPRLPRPRPRPFTVPRP | -0.0157 |
| RRIRLRPPRLPRPRPRPWGGPRP | 1.94 |
| RRIRPRPPRLPRPRPRPMGPPRP | -0.248 |
| RRIRKRPPRLPRPRPRPKHFPRP | 0.024 |
| RRIRPRPPRLPRPRPRPRCHPRP | 0.144 |
| RRIRDRPPRLPRPRPRPGRTPRP | -0.0421 |
| RRIRARPPRLPRPRPRPFRSPRP | -0.0968 |
| RRIRCRPPRLPRPRPRPAEQPRP | 0.252 |
| RRIRARPPRLPRPRPRPTPHPRP | 0.598 |
| RRIRPRPPRLPRPRPRPKNHPRP | -0.282 |
| RRIRHRPPRLPRPRPRPSWCPRP | -0.453 |
| RRIRRRPPRLPRPRPRPRPCPRP | 0.384 |
| RRIRARPPRLPRPRPRPQTHPRP | 0.491 |
| RRIRFRPPRLPRPRPRPVDLPRP | -0.102 |
| RRIRPRPPRLPRPRPRPLAFPRP | -0.0389 |
| RRIRTRPPRLPRPRPRPCLRPRP | 0.0877 |
| RRIRGRPPRLPRPRPRPFVCPRP | 0.327 |
| RRIRGRPPRLPRPRPRPPYGPRP | 0.341 |
| RRIRTRPPRLPRPRPRPFMLPRP | -0.706 |
| RRIRTRPPRLPRPRPRPPETPRP | 0.161 |
| RRIRNRPPRLPRPRPRPFDAPRP | -0.106 |
| RRIRVRPPRLPRPRPRPYGWPRP | -0.0905 |

| Sequence | shrunken log2 fold change |
| --- | --- |
| RRIRHRPPRLPRPRPRPSDAPRP | -0.293 |
| RRIRERPPRLPRPRPRPAHIPRP | -0.0903 |
| RRIRARPPRLPRPRPRPGMIPRP | 0.237 |
| RRIRGRPPRLPRPRPRPDKFPRP | 0.0879 |
| RRIRERPPRLPRPRPRPSWSPRP | -0.0285 |
| RRIRPRPPRLPRPRPRPGKAPRP | 0.37 |
| RRIRARPPRLPRPRPRPKRCPRP | 0.079 |
| RRIRTRPPRLPRPRPRPGPYPRP | -0.159 |
| RRIRQRPPRLPRPRPRPDLVPRP | -0.0031 |
| RRIRSRPPRLPRPRPRPCNFPRP | -0.702 |
| RRIRNRPPRLPRPRPRPPRMPRP | 0.24 |
| RRIRWRPPRLPRPRPRPFRGPRP | 0.0269 |
| RRIRHRPPRLPRPRPRPFKTPRP | -0.256 |
| RRIRTRPPRLPRPRPRPVKSPRP | -0.157 |
| RRIRDRPPRLPRPRPRPVQKPRP | -0.0131 |
| RRIRYRPPRLPRPRPRPLRCPRP | 0.0617 |
| RRIRTRPPRLPRPRPRPVLLPRP | -0.127 |
| RRIRTRPPRLPRPRPRPFQWPRP | -0.0875 |
| RRIRCRPPRLPRPRPRPSGWPRP | 0.0712 |
| RRIRIRPPRLPRPRPRPSRIPRP | -0.0712 |
| RRIRRRPPRLPRPRPRPWYGPRP | -0.263 |
| RRIRCRPPRLPRPRPRPSRVPRP | 0.247 |
| RRIRDRPPRLPRPRPRPRKNPRP | 0.244 |
| RRIRMRPPRLPRPRPRPHFRPRP | 0.0286 |
| RRIRRRPPRLPRPRPRPMIGPRP | -0.041 |

| Sequence | shrunken log2 fold change |
| --- | --- |
| RRIRIRPPRLPRPRPRPRSEPRP | -0.0944 |
| RRIRVRPPRLPRPRPRPSYIPRP | -0.74 |
| RRIRMRPPRLPRPRPRPQHIPRP | -0.103 |
| RRIRYRPPRLPRPRPRPCMMPRP | 0.00911 |
| RRIRRRPPRLPRPRPRPAVLPRP | -0.00596 |
| RRIRDRPPRLPRPRPRPHASPRP | 0.178 |
| RRIRSRPPRLPRPRPRPQMYPRP | -0.159 |
| RRIRVRPPRLPRPRPRPIAWPRP | 0.468 |
| RRIRKRPPRLPRPRPRPPQNPRP | 0.723 |
| RRIRQRPPRLPRPRPRPGMNPRP | 0.0205 |
| RRIRHRPPRLPRPRPRPLVFPRP | -0.29 |
| RRIRERPPRLPRPRPRPLVMPRP | -0.0346 |
| RRIRQRPPRLPRPRPRPQSHPRP | -0.309 |
| RRIRHRPPRLPRPRPRPFDGPRP | -0.258 |
| RRIRDRPPRLPRPRPRPFRSPRP | -0.0401 |
| RRIRWRPPRLPRPRPRPIGVPRP | 0.0389 |
| RRIRPRPPRLPRPRPRPHYPPRP | -0.0221 |
| RRIRRRPPRLPRPRPRPEDEPRP | -0.0165 |
| RRIRNRPPRLPRPRPRPIFLPRP | -0.182 |
| RRIRGRPPRLPRPRPRPNEHPRP | 0.435 |
| RRIRSRPPRLPRPRPRPWEEPRP | 0.0166 |
| RRIRQRPPRLPRPRPRPKVNPRP | -0.0444 |
| RRIRYRPPRLPRPRPRPIWVPRP | -0.0696 |
| RRIRGRPPRLPRPRPRPGQLPRP | 0.178 |
| RRIRDRPPRLPRPRPRPTFRPRP | -0.0707 |

| Sequence | shrunken log2 fold change |
| --- | --- |
| RRIRRRPPRLPRPRPRPLHDPRP | 0.359 |
| RRIRNRPPRLPRPRPRPWCWPRP | -0.0119 |
| RRIRDRPPRLPRPRPRPDSNPRP | 0.205 |
| RRIRMRPPRLPRPRPRPLYCPRP | -0.396 |
| RRIRERPPRLPRPRPRPYSNPRP | -0.905 |
| RRIRNRPPRLPRPRPRPTQTPRP | -0.0444 |
| RRIRNRPPRLPRPRPRPAYSPRP | -0.189 |
| RRIRARPPRLPRPRPRPHRTPRP | -0.115 |
| RRIRHRPPRLPRPRPRPNWIPRP | -0.19 |
| RRIRRRPPRLPRPRPRPNNVPRP | -0.312 |
| RRIRLRPPRLPRPRPRPFCFPRP | -0.213 |
| RRIRGRPPRLPRPRPRPVINPRP | 0.199 |
| RRIRDRPPRLPRPRPRPFYEPRP | -0.262 |
| RRIRHRPPRLPRPRPRPAWVPRP | 0.15 |
| RRIRVRPPRLPRPRPRPNCKPRP | -0.368 |
| RRIRLRPPRLPRPRPRPWIQPRP | -0.355 |
| RRIRWRPPRLPRPRPRPPMIPRP | -0.103 |
| RRIRCRPPRLPRPRPRPMMDPRP | -0.117 |
| RRIRFRPPRLPRPRPRPELRPRP | -0.0629 |
| RRIRMRPPRLPRPRPRPAWVPRP | 0.375 |
| RRIRTRPPRLPRPRPRPYYDPRP | -0.24 |
| RRIRLRPPRLPRPRPRPSGLPRP | -0.429 |
| RRIRPRPPRLPRPRPRPYNHPRP | -1.2 |
| RRIRSRPPRLPRPRPRPMISPRP | -0.453 |
| RRIRWRPPRLPRPRPRPYEIPRP | -0.402 |
